In doi:10.1101/2025.05.21.655431 (bioRxiv, 2025):
Like-named read-outs stand apart in the source and are kept apart here. Each block holds one binder with its values, some of them ahead of it.

Experiments:
WRKY8 [1] = molecular target: T1, WRKY8 (Arabidopsis thaliana, UniProt Q9FL26 1-326); test: EMSA
WRKY28 [2] = molecular target: T2, WRKY28 (Arabidopsis thaliana, UniProt Q8VWJ2 1-318); test: EMSA
His-WRKY48 (recombinant) = His-WRKY48 (recombinant) (Arabidopsis thaliana, UniProt Q9FGZ4 1-399); test: pull-down
Chain of His-WRKY48 (recombinant) (Q9FGZ4 whole entry): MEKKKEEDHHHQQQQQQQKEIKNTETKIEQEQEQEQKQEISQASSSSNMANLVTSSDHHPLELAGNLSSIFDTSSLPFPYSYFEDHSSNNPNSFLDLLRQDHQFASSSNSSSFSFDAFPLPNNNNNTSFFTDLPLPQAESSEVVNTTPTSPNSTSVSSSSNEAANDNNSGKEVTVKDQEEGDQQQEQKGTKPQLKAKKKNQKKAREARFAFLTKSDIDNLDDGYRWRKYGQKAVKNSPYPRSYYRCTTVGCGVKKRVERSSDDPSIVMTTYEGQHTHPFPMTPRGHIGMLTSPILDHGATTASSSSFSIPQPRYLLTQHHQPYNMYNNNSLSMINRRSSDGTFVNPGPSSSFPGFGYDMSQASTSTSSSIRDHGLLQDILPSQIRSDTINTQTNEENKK

WRKY8 [3] = molecular target: T1, WRKY8; test: EMSA; remark: listed apart in the source
WRKY28 [4] = molecular target: T2, WRKY28; test: EMSA; remark: listed apart in the source
WRKY48 [5] = molecular target: T3, WRKY48 (Arabidopsis thaliana, UniProt Q9FGZ4 1-399); test: EMSA
T3 sequence (Q9FGZ4 whole entry): as above

WRKY48 [6] = molecular target: T3, WRKY48; test: EMSA; remark: listed apart in the source

T2 sequence (Q8VWJ2 whole entry): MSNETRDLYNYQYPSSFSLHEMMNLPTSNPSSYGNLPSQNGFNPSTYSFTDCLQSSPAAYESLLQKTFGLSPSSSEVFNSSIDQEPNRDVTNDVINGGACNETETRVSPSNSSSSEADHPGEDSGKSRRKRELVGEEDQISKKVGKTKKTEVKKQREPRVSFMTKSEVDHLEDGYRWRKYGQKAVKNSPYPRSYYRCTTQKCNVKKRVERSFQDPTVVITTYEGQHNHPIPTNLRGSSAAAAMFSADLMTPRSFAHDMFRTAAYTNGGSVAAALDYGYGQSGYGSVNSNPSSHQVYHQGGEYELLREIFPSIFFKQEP
T1 sequence (Q9FL26 whole entry): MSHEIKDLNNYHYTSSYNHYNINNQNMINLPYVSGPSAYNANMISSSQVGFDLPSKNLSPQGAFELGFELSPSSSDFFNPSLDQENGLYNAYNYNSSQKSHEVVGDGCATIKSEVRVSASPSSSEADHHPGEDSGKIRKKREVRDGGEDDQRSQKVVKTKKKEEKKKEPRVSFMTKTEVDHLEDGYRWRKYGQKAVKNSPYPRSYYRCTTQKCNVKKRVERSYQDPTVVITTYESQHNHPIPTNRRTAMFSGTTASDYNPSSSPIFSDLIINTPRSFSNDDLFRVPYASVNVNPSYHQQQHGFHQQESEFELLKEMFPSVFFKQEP

B1: CIPK6 promoter P2 (GGTCA) (dsDNA)
DNA 1: GTTTAATTACTATCACACCGGTCACGCTGGTTTACC
DNA 2: GGTAAACCAGCGTGACCGGTGTGATAGTAATTAAAC
binding result (WRKY8 [1]): no binding
binding result (WRKY28 [2]): no binding

binding result (His-WRKY48 (recombinant)): binds
B2: GST-MPK3 (recombinant) (enzyme, Arabidopsis thaliana, UniProt Q39023 1-370, looked up)
chain: MNTGGGQYTDFPAVETHGGQFISYDIFGSLFEITSKYRPPIIPIGRGAYGIVCSVLDTETNELVAMKKIANAFDNHMDAKRTLREIKLLRHLDHENIIAIRDVVPPPLRRQFSDVYISTELMDTDLHQIIRSNQSLSEEHCQYFLYQLLRGLKYIHSANIIHRDLKPSNLLLNANCDLKICDFGLARPTSENDFMTEYVVTRWYRAPELLLNSSDYTAAIDVWSVGCIFMELMNRKPLFPGKDHVHQMRLLTELLGTPTESDLGFTHNEDAKRYIRQLPNFPRQPLAKLFSHVNPMAIDLVDRMLTFDPNRRITVEQALNHQYLAKLHDPNDEPICQKPFSFEFEQQPLDEEQIKEMIYQEAIALNPTYG

B3: CIPK6 promoter P1+P2 (dsDNA)
DNA 1: TAAATCGCATCGTGACCGGTCATAAAAAGACACGTGTCGTCATCGCTATCCAAATAATTGACAAACTCGAAGCCGCCAAGGG
DNA 2: CCCTTGGCGGCTTCGAGTTTGTCAATTATTTGGATAGCGATGACGACACGTGTCTTTTTATGACCGGTCACGATGCGATTTA
binding result (WRKY8 [3]): no binding
binding result (WRKY28 [4]): no binding
binding result (WRKY48 [5]): binds

B4: CIPK6 promoter P1 (TTGACA) (dsDNA)
DNA 1: CATCGCTATCCAAATAATTGACAAACTCGAAGCCGCC
DNA 2: GGCGGCTTCGAGTTTGTCAATTATTTGGATAGCGATG
binding result (WRKY8 [1]): no binding
binding result (WRKY28 [2]): no binding
binding result (WRKY48 [6]): binds
